{"source": "patent US20220291215A1", "key": {"[1]": {"target": "DP4/MAGE-A3243-258 TCR, clone R12C9"}, "[2]": {"target": "DP4/MAGE-A3243-258 TCR, clone R12C9", "remark": "listed apart in the source"}}, "data": [{"substance": "Control (peptide-MHC)", "values": [{"measurement": "% dimer+ CD4+ cells", "setting": "[1]", "value": 0.4, "unit": "%"}, {"measurement": "% dimer+ Vβ22+ cells", "setting": "[2]", "value": 0.1, "unit": "%"}]}]}
